From patent US9187525B2, “Methods of treating ophthalmic diseases using NPR-B agonists” (Shire Orphan Therapies GmbH, dated 2015)
Numbered stars: 1 amine (or outer) side, 2 acyl side, 3 side chain; on linkers, the order of the positions; unused ones are H or OH. Square brackets hold non-standard residues; d marks the D form. Primed or numbered codes have the meaning given here. Ends that are not written are not given here. * marks the point of attachment. Eao = rac-1-amino-2,3-dihydro-1H-indene-1-carboxylic acid, O=C(C1(N[*:1])CCc2ccccc21)[*:2]; Sni = (S)-nipecotic acid, O=C([C@H]1CCCN([*:1])C1)[*:2]; Egg = 2-Amino-3-piperidin-4-yl-propionic acid; Hyp = O=C(O)[C@@H]1C[C@@H](O)CN1; AR‑385‑017 = not defined here; Aoc(2) = CCCCCC[C@H](N)C(=O)O; NMeL = CN[C@@H](CC(C)C)C(=O)O; Aic = NC1(C(=O)O)Cc2ccccc2C1; orn(Me2) = not defined here; Octanoyl = CCCCCCCC(=O)*; Sni″ = not defined here; dHgl = not defined here; Che = not defined here; Rni = not defined here; mpa = not defined here; opa = not defined here; ppa = not defined here; Occ = octanoic acid

T1: natriuretic peptide receptor-B (human)
T1 chain: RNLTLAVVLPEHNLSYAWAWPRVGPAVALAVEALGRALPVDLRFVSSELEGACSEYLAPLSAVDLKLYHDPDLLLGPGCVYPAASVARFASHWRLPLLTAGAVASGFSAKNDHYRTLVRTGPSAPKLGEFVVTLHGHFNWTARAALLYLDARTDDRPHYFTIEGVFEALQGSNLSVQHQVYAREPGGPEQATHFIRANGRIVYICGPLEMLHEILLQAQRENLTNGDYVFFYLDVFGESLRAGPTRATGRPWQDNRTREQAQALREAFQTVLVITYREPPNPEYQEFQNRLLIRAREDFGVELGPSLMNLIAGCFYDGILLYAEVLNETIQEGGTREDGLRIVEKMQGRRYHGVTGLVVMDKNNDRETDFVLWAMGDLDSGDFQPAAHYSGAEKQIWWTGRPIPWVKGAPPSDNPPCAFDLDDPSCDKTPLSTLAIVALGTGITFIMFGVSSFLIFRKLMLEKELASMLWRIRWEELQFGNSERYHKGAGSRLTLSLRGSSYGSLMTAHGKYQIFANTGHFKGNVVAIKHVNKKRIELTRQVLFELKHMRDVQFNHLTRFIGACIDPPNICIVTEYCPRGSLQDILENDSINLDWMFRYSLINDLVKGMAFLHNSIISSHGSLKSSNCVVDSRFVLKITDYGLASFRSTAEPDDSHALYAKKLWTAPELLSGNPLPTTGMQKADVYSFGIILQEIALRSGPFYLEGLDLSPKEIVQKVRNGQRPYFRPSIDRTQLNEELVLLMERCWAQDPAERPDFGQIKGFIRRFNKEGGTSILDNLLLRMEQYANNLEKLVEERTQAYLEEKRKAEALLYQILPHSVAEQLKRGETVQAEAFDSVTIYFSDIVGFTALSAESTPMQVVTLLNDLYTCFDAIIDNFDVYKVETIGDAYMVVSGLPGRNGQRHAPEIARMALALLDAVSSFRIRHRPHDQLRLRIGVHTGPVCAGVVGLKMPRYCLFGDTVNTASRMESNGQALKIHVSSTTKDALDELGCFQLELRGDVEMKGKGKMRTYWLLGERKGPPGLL


Biological target: T1, natriuretic peptide receptor-B
Assay: cell-based or functional assay

Binder | EC50 group, cGMP in GTM-3 cells [µM]
[Occ][Sni]F[Aic]L[Hyp][NMeL]DRI-NH2 [JAL-1893] | ≤ 5
[Occ][Sni]F[opa]L[Hyp][NMeL]DRI-NH2 (reading uncertain; also: printed as Occ-Sni-Phe-opa-Leu-Hyp-Nml-Asp-Arg-Ile-NH2) [JAL-1887] | ≤ 5
[Occ][Sni]F[metO2]L[Hyp][NMeL]DRI-NH2 [JAL-1885] | ≤ 5
[Occ][Sni]F[ppa]L[Hyp][NMeL]DRI-NH2 (reading uncertain; also: printed as Occ-Sni-Phe-ppa-Leu-Hyp-Nml-Asp-Arg-Ile-NH2) [JAL-1889] | ≤ 5
[Occ][Sni]F[Eao]L[Hyp][NMeL]DRI-NH2 [JAL-1892] | ≤ 5
[Occ][Sni]F[mpa]L[Hyp][NMeL]DRI-NH2 (reading uncertain; also: printed as Occ-Sni-Phe-mpa-Leu-Hyp-Nml-Asp-Arg-Ile-NH2) [JAL-1888] | ≤ 5
[Occ][Rni]FGLKLDRI-NH2 (reading uncertain; also: printed as Occ-Rni-Phe-Gly-Leu-Lys-Leu-Asp-Arg-Ile-NH2) [JAL-0744] | ≤ 15
[Occ][Sni]F[AR‑385‑017]L[Hyp][NMeL]DRI-NH2 (reading uncertain; also: printed as Occ-Sni-Phe-(AR-385-017)-Leu-Hyp-Nml-Asp-Arg-Ile-NH2) [JAL-1886] | ≤ 5
[Occ][Sni]F[orn(Me2)]L[Hyp][NMeL]TR[Che] (reading uncertain; also: printed as Occ-Sni-Phe-orn(Me2)-Leu-Hyp-Nml-Thr-Arg-Che) [JAL-1895] | ≤ 1
H-[dHgl][Sni]FLL[Hyp][NMeL]DRI-NH2 (not fully specified (residue 4); printed as H-hgl-Sni-Phe-leu-Leu-Hyp-Nml-Asp-Arg-Ile-NH2; reading uncertain) [JAL-1897] | ≤ 5
[Occ][Sni″]FGLKLDRI-NH2 (reading uncertain; also: printed as Occ-Sni-Phe-Gly-Leu-Lys-Leu-Asp-Arg-Ile-NH2) [JAL-0743] | ≤ 5
[Occ][Sni]F[orn(Me2)]L[Hyp][NMeL]SR[Che] (reading uncertain; also: printed as Occ-Sni-Phe-orn(Me2)-Leu-Hyp-Nml-Ser-Arg-Che) [JAL-1894] | ≤ 5
[Occ][Sni]F[Egg]L[Hyp][NMeL]DRI-NH2 [JAL-1890] | ≤ 1
H-[Aoc(2)][Sni]FLL[Hyp][NMeL]DRI-NH2 (not fully specified (residue 4); printed as H-Hgl-Sni-Phe-leu-Leu-Hyp-Nml-Asp-Arg-Ile-NH2) [JAL-1896] | ≤ 5
Octanoyl-[Sni]FHL[Hyp][NMeL]DRI-NH2 (not fully specified (some residues); printed as Occ-Sni-Phe-his-Leu-Hyp-Nml-Asp-Arg-Ile-NH2) [JAL-1884] | ≤ 5
